Measurements published in patent US20180193452A1 (NEMOURS FOUNDATION, published 2018).
Changes are numbered by the printed parent chain. Names and notes keep the numbering of the source. Values belong to the binder of their own block, whether it stands above or below them.

Target: T1, purified human IgE (Abcam) (human, UniProt P01854-1 1-428)
T1 construct: also called free IgE; secreted IgE
Experiment: not told

T1 sequence (P01854 other isoform, or with tags, fused parts or gaps): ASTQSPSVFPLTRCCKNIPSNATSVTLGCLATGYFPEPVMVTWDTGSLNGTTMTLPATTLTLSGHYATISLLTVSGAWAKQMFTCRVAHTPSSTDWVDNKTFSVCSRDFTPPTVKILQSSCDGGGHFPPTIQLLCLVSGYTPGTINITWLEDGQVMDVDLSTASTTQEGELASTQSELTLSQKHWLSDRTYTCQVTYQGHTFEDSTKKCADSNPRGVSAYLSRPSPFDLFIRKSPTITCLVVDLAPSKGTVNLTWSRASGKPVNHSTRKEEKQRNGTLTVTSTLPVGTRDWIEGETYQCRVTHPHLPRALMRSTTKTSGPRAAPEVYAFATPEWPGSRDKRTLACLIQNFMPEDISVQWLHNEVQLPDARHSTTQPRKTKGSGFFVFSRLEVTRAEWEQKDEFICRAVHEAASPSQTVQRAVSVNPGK

fold affinity reduction over wild type: 27 fold
B1: FcεRIα extracellular domain mutant K117D (receptor)
chain: VPQKPKVSLNPPWNRIFKGENVTLTCNGNNFFEVSSTKWFHNGSLSEETNSSLNIVNAKFEDSGEYKCQHQQVNESEPVYLEVFSDWLLLQASAEVVMEGQPLFLRCHGWRNWDVYDVIYYKDGEALKYWYENHNISITNATVEDSGTYYCTGKVWQLDYESEPLNITVIKAPREKYWLQ

fold affinity reduction over wild type: 2 fold
B2: FcεRIα extracellular domain mutant D159A (receptor)
chain: B1 chain with D117K, D159A

fold affinity reduction over wild type: 10 fold
B3: FcεRIα extracellular domain mutant V155A (receptor)
chain: B1 chain with D117K, V155A

fold affinity reduction over wild type: 5 fold
B4: FcεRIα extracellular domain mutant W113A (receptor)
chain: B1 chain with W113A, D117K

fold affinity reduction over wild type: 3 fold
B5: FcεRIα extracellular domain mutant Y131A (receptor)
chain: B1 chain with D117K, Y131A

fold affinity reduction over wild type: 7 fold
B6: FcεRIα extracellular domain mutant W87D (receptor)
chain: B1 chain with W87D, D117K
